According to patent publication US20250082754A1 (NANJING LEGEND BIOTECH, published 2025):

Key:
[1] = target: T1, human CD33 protein (human, UniProt P20138 18-259); test: SPR (BIACORE T200), antibody fragment captured by affinity tag, 100 nM human CD33 flowed over, estimate from one concentration; column KD; no unit printed on the sheet
T1 construct: extracellular domain; It is not tied to the protein used in the screen, so it is not used here; also called recombinant human CD33 protein; CD33 ECD proteins
T1 sequence (P20138 18-259): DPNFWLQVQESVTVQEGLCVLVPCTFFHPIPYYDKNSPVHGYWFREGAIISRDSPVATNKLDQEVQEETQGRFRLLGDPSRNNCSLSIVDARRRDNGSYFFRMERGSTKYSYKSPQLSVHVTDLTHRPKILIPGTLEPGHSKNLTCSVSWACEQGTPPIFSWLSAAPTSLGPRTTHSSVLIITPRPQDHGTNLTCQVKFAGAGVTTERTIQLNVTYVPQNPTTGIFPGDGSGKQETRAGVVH
Method: The scFv proteins in the supernatant were analyzed for their ability to bind to CD33 ECD proteins by ELISA and CD33-overexpressing MV4-11 cell lines by FACS. All binders were sequenced and some were subjected to for further characterization including affinity ranking by surface plasmon resonance (SPR) on a BIACORE® T200 instrument. The experiments were carried out as follows: the crude […] proteins were captured through an affinity tag onto the sensorchip. High-concentration (100 nM) of human CD33 flowed over the sensorchip surface, and was allowed to bind the antibody fragments. On-rate (kon) and off-rate (koff) were roughly calculated based on the association and dissociation of one antigen concentration, and were used to estimate the equilibrium dissociation constant (KD).

[2] = target: T2, Human CD33 C2 domain (human, UniProt P20138); test: +/- column 'Human CD33 C2 domain' of the drawn table; legend: cell binding properties; assay not named on the sheet
T2 construct: C2 domain only; also called C2-set Ig-like domain of human CD33
T2 sequence (P20138 145-228 limits assumed): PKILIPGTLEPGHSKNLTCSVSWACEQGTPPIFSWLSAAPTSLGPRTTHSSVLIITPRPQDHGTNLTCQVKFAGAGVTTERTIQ

Kd [1] [nM] | binding result [2] | Binder
0.364 | no binding (tested: not given) | AS138521 (scFv, Format as for f1; also called anti-CD33 IgG1 AS138521; AS138521 scFv) scFv (VL-linker-VH): SSELTQPAAVSVSLGETARITCQGGNFGSYYATWYQQKPGQAPVLVIYANSNRPSGIPERFSGSSSGGTATLTISGAQAEDEADYYCQSYDNSANAVFGGGTHLTVLGGGGSGGGGSGGGGSEVQLVESGGGLVQPGGSLRLSCAASGSTFWSYYMSWVRQAPGKGLEWVSSIYSDGSYAYYADSVKGRFTISRDNAKNTVYLQMNSLKSEDTALYYCATAPTPDGGSWLWYNYWGQGTQVTVSS
0.064 |  | AS188893 (scFv, Format as for f1; also called anti-CD33 IgG1 AS188893; AS188893 scFv) scFv (VL-linker-VH): SYELTQPSAVSVSLGQTARITCQGGNLGTSYVHWYQQKPGQAPVLVIYGDDSRPSGIPERFSGSSSGGTATLTISGAQAEDEADYYCQSYDSSSSVFGGGTHLTVLGGGGSGGGGSGGGGSQVQLQESGGGLVQPGGSLRLSCAASGFTFSNNWMYWVRQAPGKGLEWVSSIATGDGSTNSADSVKGRFTISRDNTKNMLYLQMNSLKSEDTALYYCAKGVNIDHDVGAGDYWGQGTQVTVSS
0.0624 | no binding (tested: not given) | AS141996 (scFv, Format as for f1; also called anti-CD33 IgG1 AS141996; AS141996 scFv) scFv (VL-linker-VH): SSELTQPSAVSVSLGETARITCQGGNVGSSYASWYQQKPGQAPVLVIYEDSERPSGIAERFSGSSSGGTATLTISGAQAEDEADYYCQSADNNGAVFGGGTHLTVLGGGGSGGGGSGGGGSEVQVVESGGGLVQPGGSLRLSCAGSGFTFSSYAMSWVRQAPGKGLEWVSTINSGGGSTYYADSVKGRFTISRDNAKNTLYLQLNSLKTEDTAMYYCANHLLIIYSDYDVRGSEAWETWGQGTLVTVSS
0.067 |  | AS199772 (scFv, Format as for f1; also called anti-CD33 IgG1 AS199772; AS199772 scFv) scFv (VL-linker-VH): SYELTQSPSVSVALRQAAKITCRGDNIETKYAYWYQQKPGQSPLLVIYKDDNRPSGIPERFSGSNSGNMATLTISGAQAEDEADYYCQVWDSSANWVFGGGTHLTVLGGGGSGGGGSGGGGSQVQLQESGGGLVQPGGSLRLSCAASGFTFSSYWMYWVRQAPGKGLEWVSAMNTGGGSTYYGDSVKGRFTVSRDNAKNTLALQMNSLKPEDTALYYCARSWGGMYSGGYYEYSGMDYWGKGTLVTVSS
0.348 | no binding (tested: not given) | AS142077 (scFv, Format as for f1; also called anti-CD33 IgG1 AS142077; AS142077 scFv) scFv (VL-linker-VH): SYELTQPSAMSVSLGETTRITCQGGNIESSYASWYQQKPGQAPALVIYEDSERPSRIPERFSGSSSGGTATLTISGAQAEDEADYYCQSADSSGYNPVFGGGTHLTVLGGGGSGGGGSGGGGSQVQLVESGGGLVQPGGSLRLSCAASGFTFSSYAMSWVRQAPGKGLEWVSGINSGGGSTYYADSVKGRFTISRDNAKNTLYLQLNSLKTEDTAMYYCAKHLLIIYSDYDVRGSEALDAWGQGTLVTVSS
3.06 | no binding (tested: not given) | AS141962 (scFv, Format as for f1; also called anti-CD33 IgG1 AS141962; AS141962 scFv) scFv (VL-linker-VH): QAVLTQPSSVSGTPGQTVTISCAGTSSDVGSTNYVSWYRQLPGTAPKLLIYQVNYRASGIADRFSGSKSGNTASLTISGLQSADEADYYCASRSGNNFVFGGGTHLTVLGGGGSGGGGSGGGGSEVQLVESGGGLVQPGGSLRLSCAASGFTFSDFSIFWVRQAPGKGLEWVSSINFGGDRTYYADSVKGRFTISRNNAENTVYLQMNSLKAEDTAAYHCVTTAVALADCSGGCYTPGAFNAWGQGTLVTISS
1.5 |  | AS199757 (scFv, Format as for f1; also called anti-CD33 IgG1 AS199757; AS199757 scFv) scFv (VL-linker-VH): NFMLTQPPSVSGSPGQKFTISCTGSSNNIGDNYVNWYQHLPGTAPKLLIYSNNNRASGVPDRFSGSKSGSSASLTITGLQAEDEADYYCSSWDDSLSGFVFGGGTHLTVLGGGGSGGGGSGGGGSAVQLVESGGGLVQPGGSLRLTCAASGFTFDNYGMSWVRQAPGKGLEWVSAIMWNGGTTYYAEPMKGRFTISRDNAKNTVYLQMNSLKSEDTAVYYCARHGSSWYAMDYWGQGTQVTVSS
0.27 | no binding (tested: not given) | AS142096 (scFv, Format as for f1; also called anti-CD33 IgG1 AS142096; AS142096 scFv) scFv (VL-linker-VH): NFMLTQPSAVSVSLGETARITCQGGKVGSNYASWYQQKPGQAPVLVIYGDDSRPSGIPERFSGSSSGGTATLTISGAQAEDEADYYCQSYDSSGYNAVFGGGTHLTVLGGGGSGGGGSGGGGSQVQLVESGGGLVQPGGSLRLSCAASGFTFFSYYMSWVRQAPGKGLEWVSSIYSDGSNTYYADSVKGRFTISRDNAKNTVYLQMNSLKSEDTALYYCATAGYYSDYVEFEYWGQGILVTVSS
11.5 | no binding (tested: not given) | AS141869 (scFv, The legend calls it anti-CD33 IgG1; also called anti-CD33 IgG1 AS141869; AS141869 scFv) scFv (VL-linker-VH): NFMLTQPSAVSVSLGETARITCQGGNVGTSYASWYQQKPGQAPVLVIYGNSNRPSGIPERFSGSKSGGTATLTISGAQAEDEADYYCQSADSRGYVAFGGGTHLTVLGGGGSGGGGSGGGGSQVQLQESGGGLVQPGGSLRLSCAASGFTFSSYDITWVRQAPGKGLEWVSAINSGGNSTYYADSVKGRFTISRDNAKNTLYLQMNSLKTEDTAVYYCATAIEREEDPLWVGPEYNYWGQGTQVTVSS
0.35 |  | AS199911 (scFv, Format as for f1; also called anti-CD33 IgG1 AS199911; AS199911 scFv) scFv (VL-linker-VH): SYELTQPSALSVTLGQSAKITCQGDNFETTYVHWYQQKPGQAPVLVIYNDDSRPSGIPERFSGSNSGDRATLTISGAQAEDEGDYYCQSADTSGNAYVFGGGTHLTVLGGGGSGGGGSGGGGSAVQLVESGGGLVQPGGSLRLSCAASGFTFSRSDMSWVRQAPGKGLEWVSYINSGGGTNRYADSVKARFTIFRDNAKNTLYLQMNTLKPEDTAVYYCAKSGFDSDWIFGYLERWGQGTLVTVSS
0.24 |  | AS200728C (scFv, Format as for f1; also called anti-CD33 IgG1 AS200728C; AS200728C scFv) scFv (VL-linker-VH): QAVVTQLSSMSGSPGQTVTITCTGSSSNIGGGYYLSWYQQLPGTAPKLLIYNVNNRASGVPNRFSGSKTGSLASLTITGLQAEDEADYYCGSYDESLSYVFGGGTHLTVLGGGGSGGGGSGGGGSQVQLVESGGGLVQPGGSLRVSCAASGFTFKNYYMGWVRQAPGKGLEWISGINSGGEVTTYADSVKDRFTISRDNAKNTLYLQMNSLKPDDTALYYCAGGEGSSWYPDYYYGNGYWGEGTLITVSS
1.79 | no binding (tested: not given) | AS141974 (scFv, Format as for f1; also called anti-CD33 IgG1 AS141974; AS141974 scFv) scFv (VL-linker-VH): NFMLTQPAAVSVSLGETARITCQGGNFGSYYASWYQQKPGQAPVLVIYANSNRPSGIPERFSGSSSGGTATLTISGAQAEDEADYYCQSYDSSAAVFGGGTHLTVLGGGGSGGGGSGGGGSQVQLQESGGGLVQPGGSLRLSCAASGFTFSSYAMSWVRQAPGKGLEWVSAINSGGGSTYYADSVKGRFTISRDNAKNTLYLQLNSLKTEDTAMYYCAKEGGLYYSDYDELYFGYWGQGTQVTVSS
21.4 | no binding (tested: not given) | AS141837 (scFv, Format as for f1; also called anti-CD33 IgG1 AS141837; AS141837 scFv) scFv (VL-linker-VH): SSELTQPSAVSVSLGETARITCQGVNVGSYYASWYQQKPGQAPVLVIYGNSNRPSGIPERFSGSKSGGTATLTISGAQAEDEADYYCQSADSSAFNAVFGGGTHLTVLGGGGSGGGGSGGGGSQVQLVQSGGGLVQPGGSLRLSCAASGFTFSSYDMTWVRQAPGKGLEWVSAVNSGGGTTYYADSVKGRFTISRDNAKNTLYLQMNSLKTEDTAVYYCATAIEREEDPLWVGPEYNTWGQGTQVTVSS
1.08 |  | AS187809 (scFv, Format as for f1; also called anti-CD33 IgG1 AS187809; AS187809 scFv) scFv (VL-linker-VH): EIVMTQSPSSVTASAGEKVTINCKSSQSVLYSSNQKSYLAWYQQRPGQSPRLLIYYASTRESGVPDRFSGSGSTTDFTLTISSVQPEDAAVYYCQQGYSAPVTFGQGTKLELKGGGGSGGGGSGGGGSQVQLQESGGGLVQPGGSLRLSCAASGFTFSRYYMSWVRQAPGKGLEWVSSIYSDGSNTYYTDSVKGRFTISRDNAKNTVYLQMNSLKSEDTAQYYCATDRDCSGIHCGAFGYWGQGTQVTVSS
